Reference: patent publication US20170355757A1 (Regeneron, published 2017)
Where a chain is given by its changes, count along the chain named. Names and notes keep the numbering of the source.

B1: H4H11683N (antibody, V domains shown)
VH: QVQLVESGGGVVQPGRSLRLSCVASGFTFSSYGIHWVRQAPGKGLEWVAVIWDDGNNINYSDSVKGRFIISRDNSRKTVYLQMNSLRGEDTAVYYCARDAPIAPVPDYWGQGTLVTVSS
VL: DIQMTQSPSTLSASVGDRVTITCRASQSISSWLAWYQQKPGKAPKLLIYKASSLDTGVPSRFSGSGSGTEFTLTISSLQPDDFATYYCQQYNTYSYTFGLGTKLEIK
notes: also called H2M11683N
B2: H4H12171P (antibody, human IgG4, V domains shown)
VH: EVQLVESGGGVVRPGGSLRLSCAASGFTFDEYGMTWVRQVPGKGLEWVSGITWNGGFTDYTDSVKGRFTSSRDNAKNSLYLQMNSLRAEDTALYYCARDGYSSSWGAYDIWGQGTMVTVSS
VL: DIQMTQSPSSLSASVGDRVTITCRASQSISTYLNWYQQKPGKAPKLLIYAASSLQSGVPLRFSGSGSGTDFTLTISSLQPEDFASYFCQQSYSTPYTFGQGTKLEIK
notes: Human IgG4 Fc with S108P hinge mutation (H4H)
B3: H4H12166P2 (antibody, human IgG4, V domains shown)
VH: QVQLQESGPGLVKPSETLSLTCTVSGDSVSSSYWTWIRQPPGKGLEWIGYIYYSGSSNYNPSLKSRATISVDTSKNQFSLKLSSVTAADTAVYYCAREGNVDTTMIFDYWGQGTLVTVSS
VL: AIQMTQSPSSLSASVGDRVTITCRASQGIRNDLGWYQQKPGKAPKLLIYAASSLQSGVPSRFAGRGSGTDFTLTISSLQPEDFATYYCHQDFNYPWTFGQGTKVEIK
notes: Histidine-mutated CDR variant of H4H12166P; human IgG4 Fc with S108P
B4: H4H12166P7 (antibody, human IgG4, V domains shown)
VH: B3 VH with G99H
VL: B3 VL with H89L, T97H
notes: as for B3
B5: H4H12166P9 (antibody, human IgG4, V domains shown)
VH: B3 VH with T103H
VL: B3 VL with H89L, T97H
notes: as for B3
B6: H4H12166P4 (antibody, human IgG4, V domains shown)
VH: B3 VH
VL: B3 VL with H89L, T97H
notes: as for B3
B7: H4H12166P10 (antibody, human IgG4, V domains shown)
VH: B3 VH with F107H
VL: B3 VL with H89L, T97H
notes: as for B3
B8: H4H12166P8 (antibody, human IgG4, V domains shown)
VH: B3 VH with T103H
VL: B3 VL
notes: as for B3
B9: H4H12166P5 (antibody, human IgG4, V domains shown)
VH: B3 VH with F107H
VL: B3 VL with H89L
notes: as for B3
B10: H4H12166P6 (antibody, human IgG4, V domains shown)
VH: B3 VH with T103H
VL: B3 VL with H89L
notes: as for B3

Target: T1, human C5 R885H-mmh (human, UniProt P01031 19-1676)
T1 construct: also called human C5 variant R885H
Assay: SPR, mAb captured via anti-hFc, 37C
Protocol: (§1) Equilibrium dissociation constants (KD values) for C5 binding to purified anti-C5 antibodies were determined using a real-time surface plasmon resonance biosensor assay on a Biacore T200 instrument. The Biacore sensor surface was derivatized by amine coupling with a monoclonal mouse anti-human Fc antibody (GE Healthcare, # BR-1008-39) to capture anti-C5 antibodies expressed with human Fc constant regions. Biacore binding studies were conducted in HBST running buffer (0.01M HEPES pH 7.4, 0.15M NaCl, 3 mM EDTA, 0.05% v/v Surfactant P20).
(§2) Human C5 was obtained from a commercial source (EMD). Other C5 reagents were expressed with a C-terminal myc-myc-hexahistidine tag (subsequently referred to as C5-mmh). […] Association of all the C5 reagents to each of the captured monoclonal antibodies was monitored for 3 minutes and their dissociation in HBST running buffer was monitored for 8 minutes. All the binding kinetics experiments were performed at either 25° C. or 37° C. Kinetic association (kₐ) and dissociation (kd) rate constants were determined by fitting the real-time sensorgrams to a 1:1 binding model using Scrubber 2.0c curve fitting software. Binding dissociation equilibrium constants (KD) and dissociative half-lives (t %) were calculated from the kinetic rate constants as: KD (M)=kd/kₐ and t_{1/2} (min)=In2/(60×kd)

| 100 nM Human C5 R885H-mmh Bound (RU) | Kd | koff | kon | t1/2 | Binder |
| --- | --- | --- | --- | --- | --- |
| 81 RU | 2.69 nM | 0.00147 s⁻¹ | 548000 M⁻¹ s⁻¹ | 8 min | B1 |
| 80 RU | 1.63 nM | 0.000963 s⁻¹ | 592000 M⁻¹ s⁻¹ | 12 min | B2 |

Target: T2, monkey C5-mmh (monkey, UniProt P01031 19-1676 (human entry), limits assumed)
T2 construct: Recombinant monkey C5 with a C-terminal myc-myc-hexahistidine tag
T2 chain: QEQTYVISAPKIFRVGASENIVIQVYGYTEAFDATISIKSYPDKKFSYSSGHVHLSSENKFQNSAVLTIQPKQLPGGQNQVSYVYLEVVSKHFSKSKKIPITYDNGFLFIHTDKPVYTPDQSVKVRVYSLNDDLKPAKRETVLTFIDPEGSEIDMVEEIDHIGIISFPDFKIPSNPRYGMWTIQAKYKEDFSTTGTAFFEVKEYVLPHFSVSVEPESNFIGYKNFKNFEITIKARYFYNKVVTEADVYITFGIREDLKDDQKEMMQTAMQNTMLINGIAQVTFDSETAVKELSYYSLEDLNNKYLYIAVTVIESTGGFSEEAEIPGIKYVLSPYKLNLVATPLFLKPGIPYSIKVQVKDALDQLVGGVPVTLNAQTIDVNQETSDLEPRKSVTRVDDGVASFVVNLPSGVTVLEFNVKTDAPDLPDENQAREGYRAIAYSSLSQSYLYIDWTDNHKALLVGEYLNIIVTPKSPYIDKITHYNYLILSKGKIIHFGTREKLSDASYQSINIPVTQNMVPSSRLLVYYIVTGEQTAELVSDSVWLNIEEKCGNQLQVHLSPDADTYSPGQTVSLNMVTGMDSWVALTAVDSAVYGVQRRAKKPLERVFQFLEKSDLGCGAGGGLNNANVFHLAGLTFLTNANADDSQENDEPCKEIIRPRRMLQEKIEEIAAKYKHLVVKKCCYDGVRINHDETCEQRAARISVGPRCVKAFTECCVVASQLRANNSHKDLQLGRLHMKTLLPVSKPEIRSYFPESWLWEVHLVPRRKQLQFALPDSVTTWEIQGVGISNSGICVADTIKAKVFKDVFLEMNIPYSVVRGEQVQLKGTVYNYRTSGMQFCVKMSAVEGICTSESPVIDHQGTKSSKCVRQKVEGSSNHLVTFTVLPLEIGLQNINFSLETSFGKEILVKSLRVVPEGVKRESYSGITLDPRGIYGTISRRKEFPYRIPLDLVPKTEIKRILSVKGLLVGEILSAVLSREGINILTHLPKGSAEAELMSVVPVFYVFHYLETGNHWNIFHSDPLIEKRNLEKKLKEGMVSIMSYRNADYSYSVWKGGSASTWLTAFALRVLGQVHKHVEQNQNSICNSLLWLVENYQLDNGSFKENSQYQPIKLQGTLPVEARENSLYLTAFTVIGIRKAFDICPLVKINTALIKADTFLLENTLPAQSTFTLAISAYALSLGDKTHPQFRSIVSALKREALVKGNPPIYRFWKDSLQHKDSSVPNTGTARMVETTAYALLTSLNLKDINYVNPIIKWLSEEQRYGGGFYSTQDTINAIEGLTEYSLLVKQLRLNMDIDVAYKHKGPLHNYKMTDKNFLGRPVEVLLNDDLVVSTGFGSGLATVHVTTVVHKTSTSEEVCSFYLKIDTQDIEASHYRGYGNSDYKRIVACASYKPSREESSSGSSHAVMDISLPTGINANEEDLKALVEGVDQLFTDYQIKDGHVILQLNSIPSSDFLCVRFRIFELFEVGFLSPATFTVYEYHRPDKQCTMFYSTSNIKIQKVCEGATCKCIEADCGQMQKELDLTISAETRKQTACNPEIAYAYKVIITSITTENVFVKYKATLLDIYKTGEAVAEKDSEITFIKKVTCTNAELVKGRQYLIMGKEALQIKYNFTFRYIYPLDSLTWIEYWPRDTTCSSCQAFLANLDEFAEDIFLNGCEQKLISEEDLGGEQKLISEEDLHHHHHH
Assay: SPR, mAb captured via anti-hFc, 37C
Protocol: as §1, §2

| 100 nM monkey C5-mmh Bound (RU) | Kd | koff | kon | t1/2 | Binder |
| --- | --- | --- | --- | --- | --- |
| 83 RU | 7.56 nM | 0.00297 s⁻¹ | 393000 M⁻¹ s⁻¹ | 4 min | B3 |
| 48 RU | 19.3 nM | 0.00241 s⁻¹ | 125000 M⁻¹ s⁻¹ | 5 min | B4 |
| 69 RU | 14.4 nM | 0.00261 s⁻¹ | 181000 M⁻¹ s⁻¹ | 4 min | B5 |
| 80 RU | 8.2 nM | 0.00183 s⁻¹ | 223000 M⁻¹ s⁻¹ | 6 min | B6 |
| 24 RU | 42.2 nM | 0.00279 s⁻¹ | 66000 M⁻¹ s⁻¹ | 4 min | B7 |
| 53 RU | 13.3 nM | 0.00269 s⁻¹ | 203000 M⁻¹ s⁻¹ | 4 min | B8 |
| 70 RU | 20.9 nM | 0.00313 s⁻¹ | 150000 M⁻¹ s⁻¹ | 4 min | B9 |
| 112 RU | 9.18 nM | 0.00232 s⁻¹ | 253000 M⁻¹ s⁻¹ | 5 min | B10 |
| 303 RU | 2.16 nM | 0.00115 s⁻¹ | 535000 M⁻¹ s⁻¹ | 10 min | B1 |
| 78 RU | 1.85 nM | 0.00103 s⁻¹ | 556000 M⁻¹ s⁻¹ | 11 min | B2 |

Target: T3, human C5 R885C-mmh (human, UniProt P01031 19-1676)
T3 construct: also called human C5 variant R885C
Assay: SPR, mAb captured via anti-hFc, 37C
Protocol: as §1, §2

| 100 nM Human C5 R885C-mmh Bound (RU) | Kd | koff | kon | t1/2 | Binder |
| --- | --- | --- | --- | --- | --- |
| 78 RU | 3.25 nM | 0.00143 s⁻¹ | 438000 M⁻¹ s⁻¹ | 8 min | B1 |
| 78 RU | 2.01 nM | 0.000957 s⁻¹ | 477000 M⁻¹ s⁻¹ | 12 min | B2 |

Target: T1, human C5 R885H-mmh
Assay: SPR, mAb captured via anti-hFc, 25C
Protocol: as §1, §2

| 100 nM Human C5 R885H-mmh Bound (RU) | Kd | koff | kon | t1/2 | Binder |
| --- | --- | --- | --- | --- | --- |
| 118 RU | 0.468 nM | 0.000246 s⁻¹ | 526000 M⁻¹ s⁻¹ | 47 min | B1 |
| 51 RU | 0.216 nM | 0.000142 s⁻¹ | 659000 M⁻¹ s⁻¹ | 81 min | B2 |

Target: T3, human C5 R885C-mmh
Assay: SPR, mAb captured via anti-hFc, 25C
Protocol: as §1, §2

| 100 nM Human C5 R885C-mmh Bound (RU) | Kd | koff | kon | t1/2 | Binder |
| --- | --- | --- | --- | --- | --- |
| 116 RU | 0.479 nM | 0.000239 s⁻¹ | 499000 M⁻¹ s⁻¹ | 48 min | B1 |
| 51 RU | 0.366 nM | 0.000139 s⁻¹ | 379000 M⁻¹ s⁻¹ | 83 min | B2 |

Target: T4, human C5 (human, UniProt P01031 19-1676)
T4 construct: Bought human C5 (EMD #204888, said elsewhere to be purified from plasma); also called hC5; complement component 5
Assay: SPR, mAb captured via anti-hFc, dissociation at pH7.4 vs pH6.0, 25C
Protocol: Effect of pH on the rate of dissociation of recombinant human C5 bound to purified anti-C5 monoclonal antibodies was determined using a real-time surface plasmon resonance biosensor using a Biacore T200 instrument. The Biacore sensor surface was first derivatized by amine coupling with a monoclonal mouse anti-human Fc antibody (GE, # BR-1008-39) to capture anti-C5 monoclonal antibodies expressed with human IgG4 Fc. All Biacore binding studies were performed using two running buffers PBS-T, pH7.4 (0.01M Na₂HPO₄/NaH₂PO₄, 0.15M NaCl, 0.05% v/v Tween-20, adjusted to pH7.4) and PBS-T, pH6.0 (0.01M Na₂HPO₄/NaH₂PO₄, 0.15M NaCl, 0.05% v/v Tween-20, adjusted to pH6.0). […] Binding dissociative half-lives (t %) were calculated from kd as: […]

| t1/2 Ratio pH7.4/pH6.0 | Binder |
| --- | --- |
| 9.3 | B3 |
| 35 | B4 |
| 31 | B5 |
| 7.8 | B6 |
| 33 | B7 |
| 47 | B8 |
| 8.3 | B9 |
| 7.8 | B10 |
| 2 | B1 |
| 0.6 | B2 |
